PMC9791040, “CtrA activates the expression of glutathione S-transferase conferring oxidative stress resistance to Ehrlichia chaffeensis” (Frontiers in Cellular and Infection Microbiology, 2022)

Key:
NCC(=O)O = assay: inorganic phosphate formation, ascorbic acid-molybdate, OD750; assay type: biochemical, Ehrlichia chaffeensis; settings: 10 mM Na3ATP, 5 mM gamma-glutamylcysteine, 20 mM MgCl2, 50 mM KCl, 2 mM EDTA, 2.5 mM DTT, 100 mM Tris-HCl pH 8.2, 37°C, 30 min
Source text: inorganic phosphate formation, ascorbic acid-molybdate, OD750 on rGshB (E. chaffeensis GshB)

[1] = test system: T1, GST-rCtrA (Ehrlichia chaffeensis), ORF:1c7d897d; assay: EMSA
T1 sequence: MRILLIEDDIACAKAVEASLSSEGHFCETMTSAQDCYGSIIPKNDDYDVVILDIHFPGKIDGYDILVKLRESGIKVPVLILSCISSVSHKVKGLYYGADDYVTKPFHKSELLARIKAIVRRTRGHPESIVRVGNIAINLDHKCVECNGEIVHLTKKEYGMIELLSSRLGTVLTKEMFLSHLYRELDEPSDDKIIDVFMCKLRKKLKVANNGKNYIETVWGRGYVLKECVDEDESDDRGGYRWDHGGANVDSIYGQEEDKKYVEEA

[2] = substrate: N[C@@H](CCC(=O)O)C(=O)O; assay: inorganic phosphate formation, ascorbic acid-molybdate, OD750; assay type: biochemical, Ehrlichia chaffeensis; settings: 5 mM ATP, 10 mM L-alpha-aminobutyric acid, 20 mM MgCl2, 50 mM KCl, 2 mM EDTA, 100 mM Tris-HCl pH 8.0, 37°C, 30 min
Source text: inorganic phosphate formation, ascorbic acid-molybdate, OD750 on SUMO-rGshA (E. chaffeensis GshA)

“rGshB (E. chaffeensis GshB) (Ehrlichia chaffeensis str. Arkansas)” gave a Km (NCC(=O)O) of 940 ± 320 µM and a Vmax (NCC(=O)O) of 0.63 µmol/min/mg.

In the case of “ATATAACCTAATAGTGACAAATAAATTAACAATAGTAGAAGTGTCATATAAAAGCAAGTCAGAATATAAATTTTTGTATAAAATATCGGTAACTTTTGTAAGGAAAATTTAATATATTACGTCAGGTAAGTAATAGCAAAAAAACTGGTTAAGTATAGTATCATGTGTAAAGGTGAGAAAAACAGCACTTATAAACTAGTCCCCCCCCCCCCCCTCTTATTGCTACATTCTTTTGCCACTATTTTTATTTACCTGCAGCA (double strand) [p28 promoter probe, 260 bp]”, the binding [1] is reported as “no binding”.

B1: SUMO-rGshA (E. chaffeensis GshA) (Ehrlichia chaffeensis str. Arkansas) (protein)
chain: MTVIIDTLNDILTKYKLDIENWFFNKFTKYNPVLNISVDLRVSDYKIAPVDTNIFPAGYNNFTEQSQIYASRLLREYVVNYANCSKILIIAENHTRNLKYIDSLIVLKNIVNNAGFVVEVGICNINQNIELISSTGRVINCLCLTNDNGVLRAGCRFIPDLILVNNDMTSGIPEVLQGLKYQSIMPSLFLGWFNRSKSNHFSIYKKLSKEFCESFNIDPWLISAFFSSCSNICFFNSQGIDDIANEVDVVISKIRNKFQLYSIKEQPYVFVKADNGTYGMGILVAYCGDDILMLNRKKRNKMKKIKDGNVVSSVIIQEGITTREIFNGYVAEPLVYFIGHTPSCYLYRYHSVKDRFSNLNSVGCDFIDISYKQQDILYWNIIGKIAVLAAAIEMHEISNVNVMEQNCLLS
notes: tag kept
Work on B1 yielded a Km [2] of 1030 ± 20 µM and a Vmax [2] of 0.52 µmol/min/mg.
